According to PMC7155755, “Binding of the Human 14-3-3 Isoforms to Distinct Sites in the Leucine-Rich Repeat Kinase 2” (Frontiers in Neuroscience, 2020):
“Also recorded” adds a separate entry of the source. Square brackets hold non-standard residues; d marks the D form. Ends that are not written are not given here. fluorescein = N-terminal fluorescein label; pS = N[C@@H](COP(=O)(O)O)C(=O)O

T1: human 14-3-3 isoform ϵ (Homo sapiens, UniProt P62258)
T1 construct: MBP (cleaved yes); made in house; host or cells: E. coli BL21DE3
T1 sequence (P62258 1-255): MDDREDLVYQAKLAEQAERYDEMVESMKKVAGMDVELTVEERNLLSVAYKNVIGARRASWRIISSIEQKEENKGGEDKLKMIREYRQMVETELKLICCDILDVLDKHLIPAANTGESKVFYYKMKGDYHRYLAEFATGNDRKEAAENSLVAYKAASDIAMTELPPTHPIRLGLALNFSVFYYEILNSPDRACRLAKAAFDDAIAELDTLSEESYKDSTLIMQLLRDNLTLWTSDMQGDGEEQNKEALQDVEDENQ

T2: human 14-3-3γ (Homo sapiens, UniProt P61981)
T2 construct: MBP (cleaved yes); made in house; host or cells: E. coli BL21DE3
T2 sequence (P61981 1-247): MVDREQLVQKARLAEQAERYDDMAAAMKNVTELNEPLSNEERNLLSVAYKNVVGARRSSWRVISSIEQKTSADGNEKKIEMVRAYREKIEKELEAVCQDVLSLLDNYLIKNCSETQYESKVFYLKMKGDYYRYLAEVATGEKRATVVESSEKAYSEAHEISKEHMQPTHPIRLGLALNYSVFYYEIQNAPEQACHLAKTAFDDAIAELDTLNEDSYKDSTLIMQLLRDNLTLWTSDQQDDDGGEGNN

T3: human 14-3-3 isoform σ (Homo sapiens, UniProt P31947)
T3 construct: MBP (cleaved yes); made in house; host or cells: E. coli BL21DE3
T3 sequence (P31947 1-248): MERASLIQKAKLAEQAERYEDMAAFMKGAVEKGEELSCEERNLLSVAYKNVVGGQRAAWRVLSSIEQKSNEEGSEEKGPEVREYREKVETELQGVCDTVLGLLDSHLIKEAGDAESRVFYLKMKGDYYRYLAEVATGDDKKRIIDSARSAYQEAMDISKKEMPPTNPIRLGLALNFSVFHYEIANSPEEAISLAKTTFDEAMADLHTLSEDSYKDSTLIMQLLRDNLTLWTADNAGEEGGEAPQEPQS

T4: human 14-3-3 isoform θ (recombinant, MBP tag removed) (human, UniProt P27348 1-245)
T4 construct: 14-3-3 theta, human; Expressed from pMAL2CX plasmids; also called 14-3-3θ; source: E. coli BL21DE3, purified (maltose-agarose, Factor Xa, anion exchange)
T4 sequence (looked up): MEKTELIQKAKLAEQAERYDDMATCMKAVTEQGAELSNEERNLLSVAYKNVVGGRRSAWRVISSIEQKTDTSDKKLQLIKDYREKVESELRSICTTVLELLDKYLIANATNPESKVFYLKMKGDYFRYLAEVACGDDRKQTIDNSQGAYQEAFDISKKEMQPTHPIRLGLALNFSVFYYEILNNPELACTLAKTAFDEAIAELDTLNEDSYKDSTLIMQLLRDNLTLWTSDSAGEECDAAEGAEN

T5: human 14-3-3 isoform β (recombinant, MBP tag removed) (human, UniProt P31946 1-246)
T5 construct: 14-3-3 beta, human; Expressed from pMAL2CX plasmids; also called 14-3-3β; source: E. coli BL21DE3, purified (maltose-agarose, Factor Xa, anion exchange)
T5 sequence (looked up): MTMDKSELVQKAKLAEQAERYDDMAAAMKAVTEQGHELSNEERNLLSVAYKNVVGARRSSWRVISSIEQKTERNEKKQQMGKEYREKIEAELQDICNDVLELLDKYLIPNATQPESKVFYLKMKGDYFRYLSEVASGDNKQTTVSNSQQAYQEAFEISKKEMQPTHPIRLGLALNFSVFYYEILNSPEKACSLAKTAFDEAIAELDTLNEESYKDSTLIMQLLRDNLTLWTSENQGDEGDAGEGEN

T6: human 14-3-3 isoform ζ (recombinant, MBP tag removed) (human, UniProt P63104 1-245)
T6 construct: 14-3-3 zeta, human; Expressed from pMAL2CX plasmids; also called 14-3-3ζ; source: E. coli BL21DE3, purified (maltose-agarose, Factor Xa, anion exchange)
T6 sequence (looked up): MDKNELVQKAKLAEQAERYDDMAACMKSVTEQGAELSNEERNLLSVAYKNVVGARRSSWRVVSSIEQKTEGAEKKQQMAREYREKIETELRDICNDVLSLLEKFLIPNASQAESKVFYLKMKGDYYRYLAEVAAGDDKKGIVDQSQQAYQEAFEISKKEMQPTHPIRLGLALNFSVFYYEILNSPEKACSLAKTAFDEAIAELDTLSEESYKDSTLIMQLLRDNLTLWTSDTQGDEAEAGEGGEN

T7: human 14-3-3 isoform η (recombinant, MBP tag removed) (human, UniProt Q04917 1-246)
T7 construct: 14-3-3 eta, human; Expressed from pMAL2CX plasmids; also called 14-3-3η; source: E. coli BL21DE3, purified (maltose-agarose, Factor Xa, anion exchange)
T7 sequence (looked up): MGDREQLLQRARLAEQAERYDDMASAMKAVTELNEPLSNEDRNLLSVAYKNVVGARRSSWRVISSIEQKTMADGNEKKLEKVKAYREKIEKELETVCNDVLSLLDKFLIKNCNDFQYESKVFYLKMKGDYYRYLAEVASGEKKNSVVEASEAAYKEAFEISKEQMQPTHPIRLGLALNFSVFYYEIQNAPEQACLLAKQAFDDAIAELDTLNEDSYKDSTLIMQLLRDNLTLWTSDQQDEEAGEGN

T8: human 14-3-3 isoform ε (recombinant, MBP tag removed) (human, UniProt P62258 1-255)
T8 construct: 14-3-3 epsilon, human; Expressed from pMAL2CX plasmids; also called 14-3-3ε; source: E. coli BL21DE3, purified (maltose-agarose, Factor Xa, anion exchange)
T8 sequence (looked up): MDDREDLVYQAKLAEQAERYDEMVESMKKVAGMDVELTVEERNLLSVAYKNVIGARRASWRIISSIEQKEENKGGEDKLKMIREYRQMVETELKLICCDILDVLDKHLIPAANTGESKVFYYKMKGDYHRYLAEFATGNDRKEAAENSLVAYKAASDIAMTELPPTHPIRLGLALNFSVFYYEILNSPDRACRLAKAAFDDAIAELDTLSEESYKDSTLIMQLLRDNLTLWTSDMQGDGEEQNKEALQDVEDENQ

T9: human 14-3-3 isoform σ (recombinant, MBP tag removed) (human, UniProt P31947 1-248)
T9 construct: 14-3-3 sigma, human; Expressed from pMAL2CX plasmids; also called 14-3-3σ; source: E. coli BL21DE3, purified (maltose-agarose, Factor Xa, anion exchange)
T9 sequence (looked up): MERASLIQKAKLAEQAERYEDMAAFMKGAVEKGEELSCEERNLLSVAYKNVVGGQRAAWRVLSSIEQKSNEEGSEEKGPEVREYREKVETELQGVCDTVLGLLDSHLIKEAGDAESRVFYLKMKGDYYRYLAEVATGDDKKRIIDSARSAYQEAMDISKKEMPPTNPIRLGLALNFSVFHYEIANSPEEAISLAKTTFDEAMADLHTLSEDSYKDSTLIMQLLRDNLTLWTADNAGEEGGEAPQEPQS


How the values were obtained:
[1] = test system: all seven human 14-3-3 isoforms; experiment: Fluorescence polarization (FP) direct binding assay, statements over all isoforms; conditions: FP direct binding; all seven isoforms; fluorescein-labeled peptide 1 nM; FP buffer pH 7
Procedure: (§1) Human MBP-tagged 14-3-3 isoforms were expressed from pMAL2CX plasmids [[Kilisch et al. (2016)], [Yuan et al. (2003)]] in E. coli BL21DE3 cells. After induction with […] isopropyl-β-D-thiogalactoside, the protein was expressed for 4 h at room temperature. Cells were lysed in MBP-lysis buffer [50 mM Tris–HCl pH 7.5, 150 mM NaCl, 5 mM MgCl2, 1 mM PMSF, 1× cOmplete Protease Inhibitor EDTA-free (Roche)] using a French Pressure cell (FRENCH Press, Thermo, United States). Following centrifugation at 42,000 × g and 4°C for 30 min, the supernatant was transferred to a Maltose-agarose column (1.5 ml bed volume; New England Biolabs GmbH, Germany). Captured proteins were washed six times with 10 ml wash buffer (50 mM Tris–HCl pH 7.5, 150 mM NaCl, 5 mM MgCl2) prior to elution using wash buffer including 15 mM D-maltose. To remove the MBP tag, fusion proteins were incubated with Factor Xa (New England Biolabs GmbH, Germany), at a final concentration of 0.4 μg per 1 mg fusion protein for 24 h at RT following another 72 h at 4°C. Anion exchange chromatography was finally applied to separate residual MBP using a buffer gradient from 20 mM Tris pH 8 to 20 mM Tris pH 8 with 1 M NaCl. For this a RESOURCE Q column (GE Healthcare, United Kingdom) was utilized, employing an ÄKTApurifier (GE Healthcare, United Kingdom) or an NGC Quest Chromatography System (Bio-Rad Laboratories GmbH, Germany).
(§2) FP was used to determine binding affinities of different phosphorylated and non-phosphorylated peptides derived from LRRK2 sequences (Peps4LS GmbH, Germany) toward human 14-3-3 isoforms. Direct binding assays were performed and evaluated as previously described ([Muda et al., 2014]; [Manschwetus et al., 2019]). Briefly, both dilution series of 14-3-3 isoforms ranging from final concentrations of at least 5 μM down to picomolar concentrations and dilutions of the respective fluorescein-labeled peptide (final conc. 1 nM) were prepared in FP buffer (20 mM MOPS pH 7, 150 mM NaCl, 0.005% CHAPS). Subsequently, samples were mixed in 384-well microtiter plates as duplicates (BRAND plates, pureGrade, black, BRAND GmbH & Co. KG, Germany) in a 1:1 ratio and measured using a CLARIOstar plate reader (BMG LABTECH, Germany). Two protein preparations were utilized for at least two independent replications for all measurements while high affinity binding peptides were particularly measured with a minimum of three independent replications for statistical evaluation. Data was analyzed with GraphPad Prism 6.0 (GraphPad Software, San Diego, CA, United States) by plotting obtained FP signals (mPol) against the logarithmic 14-3-3 protein concentrations. Data points represent means ± standard error of mean (SEM) of duplicates. “Ctrl.” indicates the FP signal of fluorescein-labeled peptides without 14-3-3 protein. Sigmoidal dose-response fitting was performed to define KD-values.

[2] = target: T10, human 14-3-3 isoform η (Homo sapiens, UniProt Q04917); experiment: Fluorescence polarization (FP) direct binding assay; conditions: fluorescein-labeled peptide 1 nM
T10 construct: MBP (cleaved yes); made in house; host or cells: E. coli BL21DE3
Procedure: as §1, §2

[3] = target: T1, human 14-3-3 isoform ϵ; experiment: as above; conditions: fluorescein-labeled peptide 1 nM
Procedure: as §1, §2

[4] = target: T2, human 14-3-3γ; experiment: as above; conditions: dilution series of 14-3-3γ (at least 5 μM down to pM), fluorescein-labeled peptide 1 nM, FP buffer pH 7
Procedure: as §1, §2

[5] = target: T11, human 14-3-3 isoform θ (Homo sapiens, UniProt P27348); experiment: as above; conditions: fluorescein-labeled peptide 1 nM
T11 construct: MBP (cleaved yes); made in house; host or cells: E. coli BL21DE3
Procedure: as §1, §2

[6] = target: T3, human 14-3-3 isoform σ; experiment: as above; conditions: fluorescein-labeled peptide 1 nM
Procedure: as §1, §2

[7] = target: T4, human 14-3-3 isoform θ (recombinant, …); experiment: fluorescence polarisation; direct binding; dilution series of 14-3-3 isoform (at least 5 μM down to picomolar) mixed with 1 nM fluorescein-labelled peptide; 20 mM MOPS pH 7, 150 mM NaCl, 0.005% CHAPS; 384-well plates; conditions: both partners purified
[8] = target: T5, human 14-3-3 isoform β (recombinant, …); experiment: as above; conditions: both partners purified
[9] = target: T6, human 14-3-3 isoform ζ (recombinant, …); experiment: as above; conditions: both partners purified
[10] = target: T7, human 14-3-3 isoform η (recombinant, …); experiment: as above; conditions: both partners purified
[11] = target: T8, human 14-3-3 isoform ε (recombinant, …); experiment: as above; conditions: both partners purified
[12] = target: T9, human 14-3-3 isoform σ (recombinant, …); experiment: as above; conditions: both partners purified

Row | Binding to 14-3-3 isoform ϵ, in words [3] | Binding to 14-3-3 isoform θ, in words [5] | Binding to 14-3-3 isoform σ, in words [6] | Kd [7] [nM] | Kd [8] [nM] | Kd [9] [nM] | Kd [10] [nM] | Kd [11] [nM] | Kd [12] [nM] | Molecule | Binding to the human 14-3-3 isoforms, in words [1] | Binding to 14-3-3 isoform η, in words [2] | Binding to 14-3-3γ, in words [4]
1 | No binding | weakest binding | No binding |  |  |  |  |  |  | SFLVKKKSNpSISVGEFYRD [pS910, fluorescein-labeled LRRK2-derived phosphopeptide covering pS910] | micromolar affinities for the 14-3-3 isoforms except σ and ϵ; also recorded: low affinity | highest affinities, yet in a micromolar range | micromolar binding affinity; also recorded: highest affinities, yet in a micromolar range
2 |  |  |  | 73.1 | 29.5 | 23.9 | 13.3 | 48.5 | 350 | fluorescein-RCSPNLRRHSN[pS]LGPIFDH (LRRK2-derived peptide with the possible pathogenic mutation Q930R, phosphorylated at S935; source: synthetic peptide (Peps4LS GmbH)) [Q930R/pS935] |  |  | 
3 |  |  |  | 9.5 | 21.1 | 4.8 | 4.8 | 12.4 | 60.6 | fluorescein-KKSN[pS]ISVGEFYRDAVLQRCSPNLQRHSN[pS]LGPIF (LRRK2-derived 35-mer covering S910 and S935, phosphorylated at both; source: synthetic peptide (Peps4LS GmbH)) [pS910/pS935] |  |  | 
